Test results as given in patent US10280205B2, “Method for treating cancer with an activated T lymphocyte that selectively recognizes a cancer cell consisting of specific peptide” (immatics biotechnologies GmbH, priority 2015, dated 2019).

Each substance was assayed against HLA-A*02:01 (Homo sapiens, UniProt P04439, D140Y/D185E/D98H/E176V/E277Q/G131W/G231S/I119V/I121R/I166T/I218V/L300P/L318F/N151K/N90K/P208A/P217A/Q86G/Q94H/R138H/R169H/T345S) (assay: MHC binding assay: UV-ligand exchange with beta2m ELISA (exchange yield)). Details: binding to HLA-A*02:01, β2m ELISA.
Procedure, shortened: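 Peptide–HLA-A*02:01 complexes formed by UV-induced exchange of a photocleavable ligand for the test peptide. Exchange products diluted 100-fold and captured on streptavidin-coated plates. Stabilized complexes detected with HRP anti-β2m (1 h, 37° C.) and TMB, A450; exchange yield reported.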

| Substance | Peptide exchange (MHC class I binding score, peptide exchange yield) |
| --- | --- |
| 177 (YLLPEEYTSTL; listed as Homo sapiens) [compound 177] | “++++” (≥75% = ++++) |
| 41 (SLMPHIPGL; listed as Homo sapiens) [compound 41] | “+++” (≥50 = +++) |
| 149 (NLLELFVQL; listed as Homo sapiens) [compound 149] | “+++” (≥50 = +++) |
| 119 (FLYIGDIVSL; listed as Homo sapiens) [compound 119] | “++++” (≥75% = ++++) |
| 174 (ALAQYLITA; listed as Homo sapiens) [compound 174] | “+++” (≥50 = +++) |
| 102 (YLFESEGLVL; listed as Homo sapiens) [compound 102] | “+++” (≥50 = +++) |
| 132 (LLVEQPPLAGV; listed as Homo sapiens) [compound 132] | “+++” (≥50 = +++) |
| 137 (TLVLTLPTV; listed as Homo sapiens) [compound 137] | “++++” (≥75% = ++++) |
| 35 (KINDTIYEV; listed as Homo sapiens) [compound 35] | “+++” (≥50 = +++) |
| 189 (ALQRKLPYV; listed as Homo sapiens) [compound 189] | “+++” (≥50 = +++) |
| 225 (SLLKVLPAL; listed as Homo sapiens) [compound 225] | “+++” (≥50 = +++) |
| 191 (LLQEGQALEYV; listed as Homo sapiens) [compound 191] | “++” (≥20% = ++) |
| 122 (FLLAEDDIYL; listed as Homo sapiens) [compound 122] | “+++” (≥50 = +++) |

Other lines, results leading:

| Peptide exchange (MHC class I binding score, peptide exchange yield) | Substance |
| --- | --- |
| “+++” (≥50 = +++) | 248 (FLFPNQYVDV; listed as Homo sapiens) [compound 248] |
| “++++” (≥75% = ++++) | 358 (ALDEYTSEL; listed as Homo sapiens) [compound 358] |
| “+++” (≥50 = +++) | 362 (TLYGLSVLL; listed as Homo sapiens) [compound 362] |
| “++” (≥20% = ++) | 229 (RLPGPLGTV; listed as Homo sapiens) [compound 229] |
| “+++” (≥50 = +++) | 587 (VMNDRLYAI; listed as Homo sapiens) [compound 587] |
| “+++” (≥50 = +++) | 357 (SMHDLVLQV; listed as Homo sapiens) [compound 357] |
| “++” (≥20% = ++) | 251 (ALYTGFSILV; listed as Homo sapiens) [compound 251] |
| “+++” (≥50 = +++) | 304 (MTLGQIYYL; listed as Homo sapiens) [compound 304] |
| “++” (≥20% = ++) | 269 (RVLEVGALQAV; listed as Homo sapiens) [compound 269] |
| “++” (≥20% = ++) | 270 (LLLDEEGTFSL; listed as Homo sapiens) [compound 270] |
| “+++” (≥50 = +++) | 506 (KLLGKVETA; listed as Homo sapiens) [compound 506] |
| “+++” (≥50 = +++) | 606 (ALWETEVYI; listed as Homo sapiens) [compound 606] |
| “+++” (≥50 = +++) | 497 (GLLEKLTAI; listed as Homo sapiens) [compound 497] |
| “+++” (≥50 = +++) | 490 (FLLQHVQEL; listed as Homo sapiens) [compound 490] |
| “+++” (≥50 = +++) | 550 (FLYDEIEAEVNL; listed as Homo sapiens) [compound 550] |
